# Target: Fc gamma receptor IIb (FcγRIIb) on GM-CSF macrophages (human (endogenous in monocyte-derived macrophages)) (UniProt P31994)
# Sequence of UniProt P31994 (P31994 43-217): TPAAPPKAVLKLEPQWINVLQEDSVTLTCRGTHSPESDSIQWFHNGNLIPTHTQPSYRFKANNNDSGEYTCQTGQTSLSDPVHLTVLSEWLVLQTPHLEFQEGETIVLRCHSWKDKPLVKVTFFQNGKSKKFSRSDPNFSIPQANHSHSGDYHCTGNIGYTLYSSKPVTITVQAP
substance,measurement,value
heat-aggregated immune complexes (IC) of human IgG,"reduction of TNFα release by gmMφ co-cultured 1:5 with cytokine activated T cells (Tck) for 20 h, with ICs (50 µg/ml)",50%

# Source: article PMC4207781
